How the values were obtained:
14-3-3β = 14-3-3β (UniProt P31946); test: CFTR IP, 14-3-3β immunoblot; settings: reference: basal cells; sites S660,S670,S700,S712,S737,S753,S768,S795,S813
14-3-3ε = 14-3-3ε (UniProt P62258); test: CFTR IP, 14-3-3ε immunoblot; settings: reference: basal cells; sites S660,S670,S700,S712,S737,S753,S768,S795,S813

## CFTR (from UniProt P13569) forskolin 10 µM, 15 min
14-3-3β
  fold change: 2.3 fold
14-3-3ε
  fold change: 3.1 fold

From paper PMC3302758
